For 39 sequences, protein stability index results are on record in the supplement of paper PMC9732359.

± gives the uncertainty stated by the source.

A short description of the data set: protein stability index of a GFP-peptide fusion (yeast GPS) (PSI 1-4); higher = more stable; sorted into four equal gates, so the index is relative within each strain. The essentials:
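Each library plasmid carries Cherry plus GFP with a tiled 17-residue yeast protein peptide fused downstream, and the pooled library was carried in yeast. Mid-log cultures in leucine-free medium were sorted into four equal gates by GFP/Cherry ratio. Reads from Illumina sequencing of PCR-amplified plasmids from each gate were assigned to strains by barcodes. Per peptide, the protein stability index was computed as the summed products of gate read frequency and gate number.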

On to LKESYSQKHNGRILKWL [CDC53], for which the protein stability index (doa10∆) is 2.01 ± 0.059, the protein stability index (pdr5∆) amounted to 2.69 ± 0.057, the protein stability index (san1∆) is 2.34 ± 0.055 and the protein stability index (ubr1∆) came out at 2.14 ± 0.056.

Consider DNIDEKVVKAIRIYFTE [NUT1], for which the protein stability index by setting is: (doa10∆) 3.12 ± 0.092; (pdr5∆) 3 ± 0.061; (san1∆) 3.04 ± 0.048; (ubr1∆) 2.39 ± 0.036.

On to NLNDKFGIYILTQGING [MED1], for which the protein stability index came out at 1.54 ± 0.04 (doa10∆), 1.47 ± 0.032 (pdr5∆), 1.6 ± 0.096 (san1∆) and 1.43 ± 0.031 (ubr1∆).

In the case of NLSSLIVEINNVSNTFN [YJL041W/NSP1], the protein stability index is, setting by setting: (doa10∆) 2.45 ± 0.043; (pdr5∆) 2.72 ± 0.046; (san1∆) 2.62 ± 0.04; (ubr1∆) 2.58 ± 0.032.

Take FIRVIGSELVQKYVGEG [RPT1]: the protein stability index was determined as 2.59 ± 0.21 (doa10∆), 2.57 ± 0.076 (pdr5∆), 3 ± 0.083 (san1∆) and 2.84 ± 0.05 (ubr1∆).

As for NGAFQNSSNLSYNNTGI [RRP4], the protein stability index was 2.58 ± 0.069 (doa10∆), 2.85 ± 0.053 (pdr5∆), 2.98 ± 0.045 (san1∆) and 2.84 ± 0.055 (ubr1∆).

Regarding KSMGRKCFDDIEPHIFD [YCG1], the protein stability index worked out at 3.15 ± 0.075 (doa10∆), 3.07 ± 0.084 (pdr5∆), 3.29 ± 0.046 (san1∆) and 3.32 ± 0.048 (ubr1∆).

MREITETIAEAKKKVLD [RPO21]: the protein stability index is, setting by setting: (doa10∆) 3.5 ± 0.13; (pdr5∆) 3.42 ± 0.09; (san1∆) 3.42 ± 0.037; (ubr1∆) 3.24 ± 0.091.

SRCHLVTKDTKKYSSKN [SRP68]: the protein stability index by setting is: (doa10∆) 3.04 ± 0.092; (pdr5∆) 2.8 ± 0.1; (san1∆) 2.65 ± 0.11; (ubr1∆) 3.12 ± 0.072.

Regarding FNGYNPEKKEMIQEVIV [FAS2], the protein stability index came out at 3.39 ± 0.086 (doa10∆), 3.46 ± 0.1 (pdr5∆), 3.4 ± 0.08 (san1∆) and 3.4 ± 0.11 (ubr1∆).

The sequence FNSFRRFKSQFLYVLIP [QCR8] showed a protein stability index (doa10∆) of 1.63 ± 0.1, a protein stability index (pdr5∆) of 1.69 ± 0.069, a protein stability index (san1∆) of 1.56 ± 0.12 and a protein stability index (ubr1∆) of 1.4 ± 0.054.

As to VNKVPQNVAGDKTAVKL [SWP82], the protein stability index runs as follows: (doa10∆) 2.71 ± 0.16; (pdr5∆) 3.04 ± 0.11; (san1∆) 2.8 ± 0.096; (ubr1∆) 3.07 ± 0.071.

On to ITVRYWLNGKMDSKGKI [RGR1], for which the protein stability index is, setting by setting: (doa10∆) 3.27 ± 0.14; (pdr5∆) 3.51 ± 0.15; (san1∆) 3.31 ± 0.23.

As to KLEEESKRGNDKKHFNN [RPC53], the protein stability index was 3.34 ± 0.098 (doa10∆), 3.15 ± 0.094 (pdr5∆), 3.17 ± 0.094 (san1∆) and 3.28 ± 0.08 (ubr1∆).

Regarding VKSVNDPSQNRLTGSLL [RPC37], the protein stability index came to 3.16 ± 0.089 (doa10∆), 3.48 ± 0.11 (pdr5∆), 3.04 ± 0.11 (san1∆) and 3.08 ± 0.048 (ubr1∆).

On to ELEGSFNKSAELSRIEN [YCS4], for which the protein stability index is, setting by setting: (doa10∆) 2.58 ± 0.13; (pdr5∆) 3.22 ± 0.23; (san1∆) 3.12 ± 0.087; (ubr1∆) 3.11 ± 0.12.

SSNQSAPVETKKKRFEI [HRT1] gave a protein stability index (doa10∆) of 3.18 ± 0.065, a protein stability index (pdr5∆) of 3.3 ± 0.079, a protein stability index (san1∆) of 3.08 ± 0.069 and a protein stability index (ubr1∆) of 3.27 ± 0.07.

Take EESISKFPDMGSLWVEF [RPB5]: the protein stability index was 2.53 ± 0.073 (doa10∆), 2.98 ± 0.1 (pdr5∆), 2.77 ± 0.1 (san1∆) and 2.71 ± 0.1 (ubr1∆).

Take QAYQFLNTFGSKICLSH [ITC1]: the protein stability index by setting is: (doa10∆) 2.06 ± 0.076; (pdr5∆) 1.33 ± 0.049; (san1∆) 1.63 ± 0.082; (ubr1∆) 1.42 ± 0.054.

Turning to VEESGEHVILGNGELYM [SNU114], the protein stability index reads like this: (doa10∆) 3.31 ± 0.08; (pdr5∆) 3.12 ± 0.066; (san1∆) 3.3 ± 0.051; (ubr1∆) 3.13 ± 0.057.

In the case of DDYDYVMYGTAYKFEEV [RPB8], the protein stability index by setting is: (doa10∆) 2.55 ± 0.041; (pdr5∆) 2.89 ± 0.048; (san1∆) 2.95 ± 0.055; (ubr1∆) 2.72 ± 0.051.

DSSSQCIVDFTNPKLKS [YMR129W/POM152]: the protein stability index by setting is: (doa10∆) 2.2 ± 0.053; (pdr5∆) 2.43 ± 0.058; (san1∆) 2.33 ± 0.072; (ubr1∆) 1.96 ± 0.044.

On to NNNNKSINKNNKEMHTD [SSN2], for which the protein stability index stood at 3.01 ± 0.087 (doa10∆), 2.99 ± 0.082 (pdr5∆), 2.75 ± 0.073 (san1∆) and 3.17 ± 0.093 (ubr1∆).

For the sequence QLKYDTSVQEKELMLQS [YIL149C/MLP2], the protein stability index is, setting by setting: (doa10∆) 2.23 ± 0.11; (pdr5∆) 2.88 ± 0.17; (san1∆) 2.81 ± 0.1; (ubr1∆) 2.53 ± 0.12.

In the case of SVIPEVDREAMLKPNII [YCG1], the protein stability index reads like this: (doa10∆) 3.06 ± 0.12; (pdr5∆) 3.31 ± 0.14; (san1∆) 3.08 ± 0.14; (ubr1∆) 3.05 ± 0.12.

As for AQNVPMNIIQQQQQQNT [GAL11], the protein stability index turned out to be 2.48 ± 0.043 (doa10∆), 2.6 ± 0.042 (pdr5∆), 2.45 ± 0.069 (san1∆) and 2.46 ± 0.029 (ubr1∆).

For GNTVVDGEGKVDSISLH [YCG1], the protein stability index was 3.54 ± 0.3 (doa10∆) and 3.53 ± 0.23 (pdr5∆).

Take YPDFRHYGLAVDIYTHF [DIS3]: the protein stability index by setting is: (doa10∆) 2.17 ± 0.041; (pdr5∆) 2.32 ± 0.041; (san1∆) 1.9 ± 0.066; (ubr1∆) 2.2 ± 0.031.

For the sequence TELVDKANIFQVIKNEV [SSN2], the protein stability index (pdr5∆) came out at 2.54 ± 0.18, the protein stability index (san1∆) stood at 2.97 ± 0.2 and the protein stability index (ubr1∆) was 3.16 ± 0.17.

As to FRCKETHSYNFMRQNLE [RPC82], the protein stability index runs as follows: (doa10∆) 2.52 ± 0.078; (pdr5∆) 1.88 ± 0.093; (san1∆) 1.96 ± 0.093; (ubr1∆) 2.44 ± 0.065.

Turning to STNSNSKPSTASPSAHT [RPN4], the protein stability index (doa10∆) came to 2.63 ± 0.055, the protein stability index (pdr5∆) turned out to be 3.01 ± 0.086, the protein stability index (san1∆) was determined as 2.75 ± 0.061 and the protein stability index (ubr1∆) is 2.82 ± 0.042.

On to RTPVPSTLMPGGVDVGP [SNF5], for which the protein stability index was 3 ± 0.15 (pdr5∆) and 2.73 ± 0.17 (san1∆).

IEKGSTFGINLIYVNPF [FAS1]: the protein stability index worked out at 2.58 ± 0.06 (doa10∆), 2.61 ± 0.068 (pdr5∆), 2.71 ± 0.052 (san1∆) and 2.78 ± 0.04 (ubr1∆).

For the sequence AYLLLNAAGNTPDATKI [RPP2A], the protein stability index (doa10∆) was determined as 2.2 ± 0.038, the protein stability index (pdr5∆) worked out at 2.17 ± 0.036, the protein stability index (san1∆) stood at 2.17 ± 0.051 and the protein stability index (ubr1∆) was 2.49 ± 0.039.

Sequence QRYVKSVKSVKFPTRKI [RPC34] returned a protein stability index (san1∆) of 3.26 ± 0.11.

For LKTFNGSLALLKLSMAD [POP4], the protein stability index reads like this: (doa10∆) 2.33 ± 0.046; (pdr5∆) 2.33 ± 0.067; (san1∆) 2.45 ± 0.063; (ubr1∆) 2.36 ± 0.036.

For the sequence IKGPEFKFSGTVSSDVF [YLR335W/NUP2], the protein stability index (pdr5∆) was 3.17 ± 0.18.

For the sequence SENRDKFLQEFINLLLN [IRR1], the protein stability index (doa10∆) came to 2.53 ± 0.069, the protein stability index (pdr5∆) amounted to 2.07 ± 0.083, the protein stability index (san1∆) is 2.43 ± 0.076 and the protein stability index (ubr1∆) worked out at 2.21 ± 0.069.

In the case of RNEDARRNLRYGDRMKL [RPO31], the protein stability index runs as follows: (doa10∆) 3.37 ± 0.096; (pdr5∆) 3.38 ± 0.084; (san1∆) 3.21 ± 0.08; (ubr1∆) 3.38 ± 0.065.
